Test results published in publication PMC12046049, “Filamin C dimerisation is regulated by HSPB7” (Nature Communications, 2025).
Substitutions are numbered along the chain they refer to. Names and notes keep the numbering of the source. Values belong to the binder of their own block, whether it stands above or below them.

T1: HSPB5ACD (α-crystallin domain of HSPB5) (human)
T1 chain: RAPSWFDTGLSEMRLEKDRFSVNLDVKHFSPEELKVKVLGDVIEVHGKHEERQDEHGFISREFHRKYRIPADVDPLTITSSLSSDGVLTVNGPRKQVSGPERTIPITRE

B1: HSPB5 C-terminal peptide (cognate peptide of HSPB5ACD) (peptide)
chain: ERTIPITRE
modifications: Limits are not printed. 156-164, containing the IPI motif, is taken by convention from the peptide in the HSPB5 ACD-peptide structure PDB 4M5S; check residues come from the IPI motif, not numbered in
B2: FLNCd24 (domain 24 of filamin C, residues 2630-2724), wild type (domain or fragment, human)
chain: GSKFSSDASKVVTRGPGLSQAFVGQKNSFTVDCSKAGTNMMMVGVHGPKTPCEEVYVKHMGNRVYNVTYTVKEKGDYILIVKWGDESVPGSPFKVKV
notes: residual Gly-Ser overhang left on the N-terminus after TEV cleavage of the His6 tag; filamin C, human, C-terminal Ig-like domain 24, residues 2630-2724; also called FLNCd24 WT; source: E. coli BL21(DE3), purified (HisTrap, TEV cleavage); not shown: His6, N-terminal, cleaved
B3: FLNCd24^Y2683E (phosphomimic) (domain or fragment, human)
chain: B2 chain with Y56E
notes: residual Gly-Ser overhang left on the N-terminus after TEV cleavage of the His6 tag; filamin C, human, domain 24, residues 2630-2724, Y2683E; source: E. coli BL21(DE3), purified (HisTrap, TEV cleavage); not shown: His6, N-terminal, cleaved
B4: HSPB7ACD^C131S (domain or fragment)
chain: not shown
notes: residual Gly-Ser overhang left on the N-terminus after TEV cleavage of the His6 tag; HSPB7, human, core α-crystallin domain, residues 78-162 of isoform 2, C131S; numbers count on: isoform 2 (Q9UBY9-2); Mutation made to aid crystallisation; source: E. coli BL21(DE3), purified (HisTrap, TEV cleavage, HiTrap Q); not shown: His6, N-terminal, cleaved
B5: FLNCd24^T2677D (phosphomimic) (domain or fragment, human)
chain: B2 chain with T50D
notes: residual Gly-Ser overhang left on the N-terminus after TEV cleavage of the His6 tag; filamin C, human, domain 24, residues 2630-2724, T2677D; source: E. coli BL21(DE3), purified (HisTrap, TEV cleavage); not shown: His6, N-terminal, cleaved
B6: HSPB7ACD (α-crystallin domain, residues 78-162 of isoform 2) (domain or fragment)
chain: not shown
notes: residual Gly-Ser overhang left on the N-terminus after TEV cleavage of the His6 tag; HSPB7, human, core α-crystallin domain, residues 78-162 of isoform 2; numbers count on: isoform 2 (Q9UBY9-2); source: E. coli BL21(DE3), purified (HisTrap, TEV cleavage, HiTrap Q); not shown: His6, N-terminal, cleaved

What was measured:
[1] = biological target: T1, HSPB5ACD (α-crystallin domain of HSPB5); test: native MS; ACD incubated with C-terminal peptide, peptide titration; 200 mM ammonium acetate pH 6.9; acetonitrile added to the source housing; fit with a Hill slope model for 1:1 binding; conditions: both partners purified
[2] = biological target: the molecule itself; test: native MS; titration of FLNCd24 (WT or phosphomimic) alone; dimer to monomers; 200 mM ammonium acetate pH 6.9; three technical repeats
[3] = biological target: the molecule itself; test: native MS; FLNCd24 alone, and mixed at a monomer ratio of 1:1 with HSPB7, HSPB7ΔN or HSPB7ACD; 200 mM ammonium acetate pH 6.9 (full-length HSPB7: 1 M)
[4] = biological target: T2, HSPB7ΔN (residues 78-175 of isoform 2) (human, UniProt Q9UBY9-2 78-175); test: native MS; HSPB7 construct at a range of FLNCd24 concentrations; competitive homo- and hetero-dimerisation fitted as a system of coupled equilibria; 200 mM ammonium acetate pH 6.9; conditions: both partners purified
T2 construct: residual Gly-Ser overhang left on the N-terminus after TEV cleavage of the His6 tag; HSPB7, human, residues 78-175 of isoform 2 (lacks the N-terminal region); numbers count on: isoform 2 (Q9UBY9-2); source: E. coli BL21(DE3), purified (HisTrap, TEV cleavage, HiTrap Q); not shown: His6, N-terminal, cleaved

[5] = biological target: B2; test: crystal structure; HSPB7ACD^C131S and FLNCd24 mixed 4:1, heterodimer isolated by gel filtration in 20 mM HEPES pH 8.0; crystals in 0.1 mM HEPES, 20% w/v PEG 8000, pH 7.0; 2.9 Å; conditions: both partners purified
[6] = biological target: B2; test: native MS; HSPB7 construct at a range of FLNCd24 concentrations; competitive homo- and hetero-dimerisation fitted as a system of coupled equilibria; 200 mM ammonium acetate pH 6.9; conditions: both partners purified
[7] = biological target: B5; test: as above; conditions: both partners purified
[8] = biological target: B3; test: as above; conditions: both partners purified
[9] = biological target: T3, HSPB1ACD (α-crystallin domain of HSPB1) (human); test: native MS; ACD incubated with C-terminal peptide, peptide titration; 200 mM ammonium acetate pH 6.9; acetonitrile added to the source housing; fit with a Hill slope model for 1:1 binding; conditions: both partners purified
T3 construct: HSPB1, human, α-crystallin domain; also called ACD of HSPB1

Binder: B1
Kd [1]: ≤ 100000 nM

Binder: B2
Kd [2]: 75.9 ± 8.4 nM
stoichiometry N [3]: 2
Kd [4]: 6.7 ± 1.4 nM

Binder: B3
Kd [2]: 4050 ± 557 nM

Binder: B4
binding result [5]: binds

Binder: B5
Kd [2]: 8.5 ± 1 nM

Binder: B6
Kd [6]: 3.9 ± 0.9 nM
Kd [7]: 14.1 ± 0.5 nM
Kd [8]: 2.2 ± 0.6 nM

Kd [9]: ≤ 100000 nM
Binder: ITIPVTFE [HSPB1 C-terminal peptide (cognate peptide of HSPB1ACD)]
